Test results as given in article doi:10.1101/2025.11.07.687251, “Reconstitution of multistep recruitment of ULK1 to membranes in autophagy” (bioRxiv, 2025).

T1: MBP-mCherry-ULK1(291–828) (human, UniProt O75385 291-828)
T1 construct: ULK1, human, intrinsically disordered region, residues 291-828 (no kinase domain, no EAT domain); also called mCherry-ULK1 ^ΔKDΔEAT (291–828); ULK1 IDR; source: purified (amylose resin); not shown: mCherry, N-terminal, kept
T1 sequence (looked up): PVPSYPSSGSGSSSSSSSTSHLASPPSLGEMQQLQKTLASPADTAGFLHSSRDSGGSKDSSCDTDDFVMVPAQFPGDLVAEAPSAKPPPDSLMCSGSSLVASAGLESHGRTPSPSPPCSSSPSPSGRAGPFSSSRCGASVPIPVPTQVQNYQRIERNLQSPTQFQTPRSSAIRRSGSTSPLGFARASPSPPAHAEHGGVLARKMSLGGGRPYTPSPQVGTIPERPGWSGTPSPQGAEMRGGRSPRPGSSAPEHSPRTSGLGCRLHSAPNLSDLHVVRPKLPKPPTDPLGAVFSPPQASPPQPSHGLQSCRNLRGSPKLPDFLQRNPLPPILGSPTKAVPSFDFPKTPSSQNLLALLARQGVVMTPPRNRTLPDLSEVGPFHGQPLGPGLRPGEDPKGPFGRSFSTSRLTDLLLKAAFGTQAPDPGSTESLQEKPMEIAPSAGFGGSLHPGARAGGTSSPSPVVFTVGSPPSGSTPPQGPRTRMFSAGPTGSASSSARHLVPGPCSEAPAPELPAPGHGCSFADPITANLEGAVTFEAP

T2: mcherry-ATG13(1–230)/TSF-ATG101 (human, UniProt O75143 1-230; Q9BSB4 1-218)
T2 construct: ATG13, human; ATG101, human, wild type; TSF-tagged proteins in general were purified on Strep-Tactin Sepharose; also called mCherry-ATG13^HD:TSF-ATG101; mCherry-ATG13^HD:ATG101; not shown: mCherry, N-terminal, kept
T2 sequence (looked up) 1: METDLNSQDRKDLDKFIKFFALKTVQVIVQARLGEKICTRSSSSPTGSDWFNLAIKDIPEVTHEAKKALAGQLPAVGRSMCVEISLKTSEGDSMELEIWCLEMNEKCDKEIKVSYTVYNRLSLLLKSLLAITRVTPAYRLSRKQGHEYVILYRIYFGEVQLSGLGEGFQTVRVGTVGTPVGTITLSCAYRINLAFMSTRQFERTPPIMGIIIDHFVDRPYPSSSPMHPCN
T2 sequence (looked up) 2: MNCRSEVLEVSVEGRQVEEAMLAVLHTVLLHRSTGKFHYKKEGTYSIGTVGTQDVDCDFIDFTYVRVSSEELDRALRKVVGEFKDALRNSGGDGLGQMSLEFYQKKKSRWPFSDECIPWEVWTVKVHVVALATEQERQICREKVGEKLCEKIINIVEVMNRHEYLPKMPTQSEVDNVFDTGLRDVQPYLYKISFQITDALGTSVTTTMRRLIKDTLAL

B1: GST-ATG13(6–196)/ATG101 (complex, human)
chain 1: NSQDRKDLDKFIKFFALKTVQVIVQARLGEKICTRSSSSPTGSDWFNLAIKDIPEVTHEAKKALAGQLPAVGRSMCVEISLKTSEGDSMELEIWCLEMNEKCDKEIKVSYTVYNRLSLLLKSLLAITRVTPAYRLSRKQGHEYVILYRIYFGEVQLSGLGEGFQTVRVGTVGTPVGTITLSCAYRINLAFM
chain 2: T2 sequence (looked up) 2
notes: ATG101, human, wild type; no tag is named; also called GST-ATG13^HD:ATG101; ATG13^HD:ATG101; source: HEK293T-GNTI- cells, transfected (PEI), purified (GSH resin, S200 SEC); not shown: GST, N-terminal, kept
B2: GST-GFP-ULK1(415–464) (domain or fragment, human, UniProt O75385 415-464, looked up)
chain: SGRAGPFSSSRCGASVPIPVPTQVQNYQRIERNLQSPTQFQTPRSSAIRR
notes: ULK1, human, IDR fragment with the PVP motif, residues 415-464; GST-tagged proteins in general were purified on GSH resin; also called GST-tagged fragment of the ULK1 IDR encompassing residues 415–464; not shown: GST, N-terminal, kept; GFP, N-terminal, kept

What was measured:
[1] = target: T1, MBP-mCherry-ULK1(291–828); experiment: pull-down; microscopy-based bead assay (Fig. S3): GST-ATG13(6–196)/ATG101 as bait on GSH beads; MBP-mCherry-ULK1 fragments added separately; mCherry on the beads imaged; settings: both partners purified
[2] = target: T2, mcherry-ATG13(1–230)/TSF-ATG101; experiment: pull-down; microscopy-based bead assay (Fig. 5e): GST-GFP-ULK1(415–464) (WT or ADA) as bait on GSH beads; mcherry-ATG13(1–230)/TSF-ATG101 as prey; mCherry channel quantified; settings: both partners purified

| Binder | binding result [1] | binding result [2] |
| --- | --- | --- |
| B1 | binds | – |
| B2 | – | binds |
